Target: α2β1 integrin (human (endogenous in HT1080)) (UniProt P17301)
Chain of UniProt P17301 (P17301 30-1181, chain 1 of 2): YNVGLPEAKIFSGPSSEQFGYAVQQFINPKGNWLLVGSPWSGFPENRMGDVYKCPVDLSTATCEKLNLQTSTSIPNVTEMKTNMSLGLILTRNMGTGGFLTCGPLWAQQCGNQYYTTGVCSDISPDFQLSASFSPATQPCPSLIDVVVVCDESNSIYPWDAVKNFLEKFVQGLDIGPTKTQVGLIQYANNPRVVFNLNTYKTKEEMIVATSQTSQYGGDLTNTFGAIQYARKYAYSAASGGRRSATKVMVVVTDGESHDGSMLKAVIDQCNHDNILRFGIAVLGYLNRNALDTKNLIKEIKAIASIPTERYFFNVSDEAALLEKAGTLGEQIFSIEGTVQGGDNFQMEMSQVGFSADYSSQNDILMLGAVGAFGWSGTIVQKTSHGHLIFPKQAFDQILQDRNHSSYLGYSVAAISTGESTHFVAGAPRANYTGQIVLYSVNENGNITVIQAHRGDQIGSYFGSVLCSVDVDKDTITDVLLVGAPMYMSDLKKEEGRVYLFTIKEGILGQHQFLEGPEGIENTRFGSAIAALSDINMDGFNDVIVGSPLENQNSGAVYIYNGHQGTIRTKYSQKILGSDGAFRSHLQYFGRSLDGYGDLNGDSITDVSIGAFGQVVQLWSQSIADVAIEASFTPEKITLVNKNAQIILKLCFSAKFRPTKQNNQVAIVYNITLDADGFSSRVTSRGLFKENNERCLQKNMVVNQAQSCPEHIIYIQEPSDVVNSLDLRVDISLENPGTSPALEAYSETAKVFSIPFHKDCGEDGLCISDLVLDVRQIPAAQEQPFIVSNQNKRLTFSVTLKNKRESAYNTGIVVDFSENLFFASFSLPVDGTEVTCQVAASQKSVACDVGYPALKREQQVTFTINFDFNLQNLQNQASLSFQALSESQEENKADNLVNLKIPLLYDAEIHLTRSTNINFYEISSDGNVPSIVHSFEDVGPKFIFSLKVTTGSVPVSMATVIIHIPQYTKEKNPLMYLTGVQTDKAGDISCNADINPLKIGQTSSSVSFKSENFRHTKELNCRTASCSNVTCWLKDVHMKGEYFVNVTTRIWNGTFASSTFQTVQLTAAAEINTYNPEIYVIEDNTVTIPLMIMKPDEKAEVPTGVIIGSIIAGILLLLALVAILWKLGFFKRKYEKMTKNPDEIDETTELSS
Chain of UniProt P17301 (P05556 21-798, chain 2 of 2, further chain): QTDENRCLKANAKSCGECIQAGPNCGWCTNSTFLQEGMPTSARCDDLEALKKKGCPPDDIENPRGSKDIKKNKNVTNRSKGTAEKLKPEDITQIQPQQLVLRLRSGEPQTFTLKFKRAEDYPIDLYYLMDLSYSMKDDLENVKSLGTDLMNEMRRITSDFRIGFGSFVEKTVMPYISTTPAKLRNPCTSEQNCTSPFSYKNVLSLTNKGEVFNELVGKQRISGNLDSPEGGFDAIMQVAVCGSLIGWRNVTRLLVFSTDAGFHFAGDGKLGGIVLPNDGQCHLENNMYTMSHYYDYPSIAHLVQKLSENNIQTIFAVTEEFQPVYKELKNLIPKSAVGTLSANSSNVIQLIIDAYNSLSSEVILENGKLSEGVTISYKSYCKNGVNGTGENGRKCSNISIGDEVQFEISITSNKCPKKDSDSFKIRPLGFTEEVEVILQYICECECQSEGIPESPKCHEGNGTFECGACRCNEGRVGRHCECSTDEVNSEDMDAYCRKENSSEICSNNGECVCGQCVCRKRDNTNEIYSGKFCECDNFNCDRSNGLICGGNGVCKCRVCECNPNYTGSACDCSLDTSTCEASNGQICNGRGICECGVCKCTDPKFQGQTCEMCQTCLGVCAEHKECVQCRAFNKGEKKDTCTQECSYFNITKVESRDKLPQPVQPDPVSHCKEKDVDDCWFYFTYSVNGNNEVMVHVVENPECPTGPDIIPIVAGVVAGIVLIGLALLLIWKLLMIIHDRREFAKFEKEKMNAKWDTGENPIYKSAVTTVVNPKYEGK

Substance	adhesion of HT1080 cells pre-incubated with 10 μg/mL mAb13 (anti-β1) on Fmoc-FF/S/GFOGER hydrogel [%]	adhesion of HT1080 cells pre-incubated with 10 μg/mL mAb13 (anti-β1) on RTC-modified hydrogel [%]
GFOGER peptide	23	
Rat Tail Collagen (from UniProt P02454 152-1207; P02466 86-1125) (natural protein)		15

From paper PMC9140497
